{"source": "the supplement of paper PMC10567573", "parents": {"B1": {"name": "ZNF8 (parent)", "chain": "KPYTCSVCGKSFSRTTCLFLHLRT"}}}
{"variants_of": "B1", "test": "protein stability index of a GFP-peptide fusion (GPS, HEK-293T) (PSI 1-6); higher = more stable", "details": "c terminus: a fixed tail appended"}
{"variant": "KPETCSVCGKSFSRTTCLFLHLRT", "protein stability index": 1.76}
{"variant": "KPWTCSVCGKSFSRTTCLFLHLRT", "protein stability index": 1.7}
{"variant": "KPTTCSVCGKSFSRTTCLFLHLRT", "protein stability index": 2.4}
{"variant": "KPSTCSVCGKSFSRTTCLFLHLRT", "protein stability index": 1.74}
{"variant": "KPKTCSVCGKSFSRTTCLFLHLRT", "protein stability index": 1.91}
{"variant": "KPRTCSVCGKSFSRTTCLFLHLRT", "protein stability index": 1.76}
{"variant": "KPDTCSVCGKSFSRTTCLFLHLRT", "protein stability index": 2.07}
{"variant": "KPMTCSVCGKSFSRTTCLFLHLRT", "protein stability index": 2.3}
{"variant": "KPYTCSVCGKSFSRTTKLFLHLRT", "protein stability index": 2.35}
{"variant": "KPYTCSVCGKSFSRTTQLFLHLRT", "protein stability index": 2.58}
{"variant": "KPYTCSVCGKSFSRTTSLFLHLRT", "protein stability index": 1.84}
{"variant": "KPYTCSVCGKSFSRTTDLFLHLRT", "protein stability index": 3.67}
{"variant": "KPYTCSVCGKSFSRTTHLFLHLRT", "protein stability index": 2.04}
{"variant": "KPYTCSVCGKSFSRTTRLFLHLRT", "protein stability index": 2.35}
{"variant": "KPYTCSVCGKSFSRTTMLFLHLRT", "protein stability index": 2.13}
{"variant": "KPYTCSVCGKSFSRTTTLFLHLRT", "protein stability index": 2.42}
{"variant": "KPYTCSVCGKSFSRTTYLFLHLRT", "protein stability index": 2.15}
{"variant": "KPYTCSVCGKSFSRTTCLFCHLRT", "protein stability index": 2.63}
{"variant": "KPYTCSVCGKSFSRTTCLFKHLRT", "protein stability index": 2.32}
{"variant": "KPYTCSVCGKSFSRTTCLFEHLRT", "protein stability index": 3.07}
{"variant": "KPYTCSVCGKSFSRTTCLFPHLRT", "protein stability index": 2.27}
{"variant": "KPYTCSVCGKSFSRTTCLFTHLRT", "protein stability index": 2.65}
{"variant": "KPYTCSVCGKSFSRTTCLFYHLRT", "protein stability index": 1.94}
{"variant": "KPYTCSVCGKSFSRTTCLFNHLRT", "protein stability index": 2.56}
{"variant": "KPYTCSVCGKSFSRTTCLFMHLRT", "protein stability index": 1.74}
{"variant": "KPYTCSVCGKSFSRTTCLFRHLRT", "protein stability index": 2.42}
{"variant": "KPYTCSVCGKSFSRTTCLFFHLRT", "protein stability index": 2.14}
{"variant": "KPYTCSVCGKSFSRTTCCFLHLRT", "protein stability index": 2.31}
{"variant": "KPYTCSVCGKSFSRTTCTFLHLRT", "protein stability index": 2.27}
{"variant": "KPYTCSVCGKSFSRTTCGFLHLRT", "protein stability index": 2.44}
{"variant": "KPYTCSVCGKSFSRTTCAFLHLRT", "protein stability index": 2.19}
{"variant": "KPYTCSVCGKSFSRTTCSFLHLRT", "protein stability index": 1.89}
{"variant": "KPYTCSVCGKSFSRTTCDFLHLRT", "protein stability index": 2.2}
{"variant": "KPYTCSVCGKSFSRTTCQFLHLRT", "protein stability index": 2.11}
{"variant": "KPYTCSVCGKSFSRTTCMFLHLRT", "protein stability index": 2.33}
{"variant": "KPYTCSVCGKSFSRTTCFFLHLRT", "protein stability index": 1.95}
{"variant": "KPYTCSVCGKSFSRTTCPFLHLRT", "protein stability index": 2.32}
{"variant": "KPYTCSVCGKSFSRTTCLFLHLRN", "protein stability index": 2.35}
{"variant": "KPYTCSVCGKSFSRTTCLFLHLRH", "protein stability index": 2.96}
{"variant": "KPYTCSVCGKSFSRTTCLFLHLRI", "protein stability index": 1.52}
{"variant": "KPYTCSVCGKSFSRTTCLFLHLRQ", "protein stability index": 1.9}
{"variant": "KPYTCSVCGKSFSRTTCLFLHLRE", "protein stability index": 1.67}
{"variant": "KPYTCSVCGKSFSRTTCLFLHLRD", "protein stability index": 2.12}
{"variant": "KPYTCSVCGKSFSRTTCLFLHLRL", "protein stability index": 1.58}
{"variant": "KPYTCSVCGKSFSRTTCLFLHLRY", "protein stability index": 1.68}
{"variant": "KPYTCSVCGKSFSRTTCLFLHLRA", "protein stability index": 1.96}
{"variant": "KPYTCSVCGKSFSRTTCLFLHLRR", "protein stability index": 2.04}
{"variant": "KPYTCSVCGKSFSRTTCLFLHHRT", "protein stability index": 1.81}
{"variant": "KPYTCSVCGKSFSRTTCLFLHERT", "protein stability index": 2.31}
{"variant": "KPYTCSVCGKSFSRTTCLFLHTRT", "protein stability index": 2.1}
{"variant": "KPYTCSVCGKSFSRTTCLFLHIRT", "protein stability index": 1.96}
{"variant": "KPYTCSVCGKSFSRTTCLFLHVRT", "protein stability index": 1.85}
{"variant": "KPYTCSVCGKSFSRTTCLFLHART", "protein stability index": 2.08}
{"variant": "KPYTCSVCGKSFSRTTCLFLHCRT", "protein stability index": 2.24}
{"variant": "KPYTCSVCGKSFSRTTCLFLHRRT", "protein stability index": 2.34}
{"variant": "KPYTCSVCGESFSRTTCLFLHLRT", "protein stability index": 1.47}
{"variant": "KPYTCSVCGDSFSRTTCLFLHLRT", "protein stability index": 2.03}
{"variant": "KPYTCSVCGRSFSRTTCLFLHLRT", "protein stability index": 1.87}
{"variant": "KPYTCSVCGSSFSRTTCLFLHLRT", "protein stability index": 1.52}
{"variant": "KPYTCSVCGKSFSRTICLFLHLRT", "protein stability index": 2.44}
{"variant": "KPYTCSVCGKSFSRTFCLFLHLRT", "protein stability index": 1.39}
{"variant": "KPYTCSVCGKSFSRTWCLFLHLRT", "protein stability index": 2.19}
{"variant": "KPYTCSVCGKSFSRTVCLFLHLRT", "protein stability index": 1.68}
{"variant": "KPYTCSVCGKSFSRTPCLFLHLRT", "protein stability index": 2.67}
{"variant": "KPYTCSVCGKSFSRTGCLFLHLRT", "protein stability index": 2.6}
{"variant": "KPYTCSVCGKSFSRTDCLFLHLRT", "protein stability index": 2.27}
{"variant": "KPYTCSVCGKSFSRTLCLFLHLRT", "protein stability index": 1.79}
{"variant": "KPYGCSVCGKSFSRTTCLFLHLRT", "protein stability index": 2.51}
{"variant": "KPYCCSVCGKSFSRTTCLFLHLRT", "protein stability index": 2.1}
{"variant": "KPYLCSVCGKSFSRTTCLFLHLRT", "protein stability index": 2.19}
{"variant": "KPYECSVCGKSFSRTTCLFLHLRT", "protein stability index": 1.77}
{"variant": "KPYRCSVCGKSFSRTTCLFLHLRT", "protein stability index": 2.4}
{"variant": "KPYQCSVCGKSFSRTTCLFLHLRT", "protein stability index": 1.49}
{"variant": "KPYHCSVCGKSFSRTTCLFLHLRT", "protein stability index": 1.8}
{"variant": "KPYKCSVCGKSFSRTTCLFLHLRT", "protein stability index": 2.04}
{"variant": "KPYMCSVCGKSFSRTTCLFLHLRT", "protein stability index": 1.83}
{"variant": "KPYTCSHCGKSFSRTTCLFLHLRT", "protein stability index": 1.44}
{"variant": "KPYTCSLCGKSFSRTTCLFLHLRT", "protein stability index": 2.87}
{"variant": "KPYTCSWCGKSFSRTTCLFLHLRT", "protein stability index": 1.85}
{"variant": "KPYTCSICGKSFSRTTCLFLHLRT", "protein stability index": 2.2}
{"variant": "KPYTCSACGKSFSRTTCLFLHLRT", "protein stability index": 2.12}
{"variant": "KPYTCSECGKSFSRTTCLFLHLRT", "protein stability index": 2.09}
{"variant": "KPYTCSCCGKSFSRTTCLFLHLRT", "protein stability index": 2.82}
{"variant": "KPYTCSVCGKSFSRHTCLFLHLRT", "protein stability index": 1.83}
{"variant": "KPYTCSVCGKSFSRNTCLFLHLRT", "protein stability index": 2.02}
{"variant": "KPYTCSVCGKSFSRFTCLFLHLRT", "protein stability index": 2.9}
{"variant": "KPYTCSVCGKSFSRLTCLFLHLRT", "protein stability index": 2.29}
{"variant": "KPYTCSVCGKSFSRITCLFLHLRT", "protein stability index": 2.62}
{"variant": "KPYTCSVCGKSFSRKTCLFLHLRT", "protein stability index": 2.39}
{"variant": "KPYTCSVCGKSFSRWTCLFLHLRT", "protein stability index": 2.1}
{"variant": "KPYTCSVCGKSFSRVTCLFLHLRT", "protein stability index": 2.44}
{"variant": "KPYTCSVCGKSFSRYTCLFLHLRT", "protein stability index": 2.31}
{"variant": "KPYTCSVCGKTFSRTTCLFLHLRT", "protein stability index": 2.2}
{"variant": "KPYTCSVCGKQFSRTTCLFLHLRT", "protein stability index": 2.21}
